Experimental data: the supplement of paper PMC10724198
± gives the standard deviation of the averaged measurements.

Legend:
[1] = tested on: Saccharomyces cerevisiae; test: protein stability index of tFT-peptide fusion (C-terminal peptide) (PSI (0-1 scale)); higher = more stable (slower turnover)
Experimental: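 MPS profiling in S. cerevisiae of the tFT-X12 degron library: putative degron peptides plus stable controls, 12 aa, fused to the C-terminus of a sfGFP-mCherry timer. Cells are FACS-sorted into 8 mCherry/sfGFP bins and deep-sequenced. PSI runs from 0 (unstable) to 1 (stable). Backgrounds are wild type, das1Δ and doa10Δ at 30 °C, and wild type, das1Δ, cdc34-1 and cdc53-1 at 37 °C; 2-3 technical replicates each.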

[2] = tested on: Saccharomyces cerevisiae; test: as above; settings: genetic background: wild type; temperature: 30 C
[3] = genetic background: cdc34-1, temperature: 37 C
[4] = genetic background: cdc53-1, temperature: 37 C
[5] = genetic background: das1 deletion, temperature: 30 C
[6] = genetic background: das1 deletion, temperature: 37 C
[7] = genetic background: doa10 deletion, temperature: 30 C
[8] = genetic background: wild type, temperature: 30 C
[9] = genetic background: wild type, temperature: 37 C
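Further: PSI is a weighted mean of sequencing reads over stability bins, variants kept only with over 10 reads, mCherry proximal and sfGFP distal, peptide attached via GGGS linker.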

| Sequence | protein stability index [1, 3] | protein stability index [1, 4] | protein stability index [1, 5] | protein stability index [1, 6] | protein stability index [1, 7] | protein stability index [1, 8] | protein stability index [1, 9] | protein stability index [2] |
| --- | --- | --- | --- | --- | --- | --- | --- | --- |
| GWLFTFTCAFRV | 0.429 ± 0.01 | 0.441 ± 0.014 | 0.443 ± 0.027 | 0.482 ± 0.012 | 0.4984 ± 0.0014 | 0.428 ± 0.016 | 0.4672 ± 0.0025 | 0.479 ± 0.058 |
| GWRVWVQIIWGR | 0.316 ± 0.013 | 0.409 ± 0.0041 | 0.293 ± 0.027 | 0.441 ± 0.018 | 0.282 ± 0.0029 | 0.286 ± 0.02 | 0.40261 ± 8.5e-05 | 0.352 ± 0.028 |
| GYGAVHWWFWLF | 0.604 ± 0.052 | 0.6675 ± 0.0043 | 0.587 ± 0.04 | 0.7066 ± 0.006 | 0.1934 ± 0.0013 | 0.214 ± 0.026 | 0.3761 ± 0.0034 | 0.31 ± 0.027 |
| GYVCVGLVYSVA | 0.372 ± 0.041 | 0.411 ± 0.017 | 0.267 ± 0.038 | 0.463 ± 0.0037 | 0.216 ± 0.0035 | 0.249 ± 0.038 | 0.433 ± 0.0093 | 0.337 ± 0.072 |
| HCINYGRIQFCA | 0.596 ± 0.028 | 0.71 ± 0.05 | 0.596 ± 0.013 | 0.714 ± 0.024 | 0.245 ± 0.012 | 0.253 ± 0.034 | 0.532 ± 0.06 | 0.388 ± 0.051 |
| HEVHATVPNQIM | 0.688 ± 0.026 | 0.7487 ± 0.0024 | 0.638 ± 0.01 | 0.736 ± 0.0095 | 0.649 ± 0.018 | 0.653 ± 0.02 | 0.7114 ± 0.0045 | 0.697 ± 0.011 |
| HFRFSRYIRWVL | 0.619 ± 0.08 | 0.7004 ± 0.0021 | 0.653 ± 0.02 | 0.746 ± 0.0079 | 0.139 ± 0.0018 | 0.151 ± 0.016 | 0.332 ± 0.0057 | 0.237 ± 0.013 |
| HFSCLLIILGFC | 0.275 ± 0.01 | 0.395 ± 0.078 | 0.268 ± 0.04 | 0.448 ± 0.0081 | 0.216 ± 0.005 | 0.267 ± 0.023 | 0.459 ± 0.092 | 0.331 ± 0.026 |
| HIVWVLQRAFRG | 0.511 ± 0.058 | 0.516 ± 0.0086 | 0.493 ± 0.021 | 0.504 ± 0.02 | 0.506 ± 0.038 | 0.488 ± 0.016 | 0.485 ± 0.018 | 0.509 ± 0.039 |
| HLCVLWVLLLCF | 0.286 ± 0.032 | 0.323 ± 0.0031 | 0.26 ± 0.025 | 0.383 ± 0.011 | 0.289 ± 0.015 | 0.246 ± 0.019 | 0.368 ± 0.024 | 0.333 ± 0.011 |
| HLFDMFFFLLHV | 0.514 ± 0.047 | 0.5932 ± 0.0025 | 0.488 ± 0.022 | 0.611 ± 0.0073 | 0.343 ± 0.0048 | 0.33 ± 0.022 | 0.504 ± 0.01 | 0.441 ± 0.027 |
| HLGAAVYVFSVL | 0.664 ± 0.086 | 0.707 ± 0.019 | 0.551 ± 0.0072 | 0.705 ± 0.016 | 0.399 ± 0.071 | 0.424 ± 0.0089 | 0.64 ± 0.03 | 0.477 ± 0.006 |
| HMSAISLIGALA | 0.595 ± 0.051 | 0.575 ± 0.04 | 0.436 ± 0.06 | 0.595 ± 0.011 | 0.392 ± 0.0086 | 0.434 ± 0.02 | 0.5673 ± 0.0013 | 0.519 ± 0.029 |
| HNLYCKILQLCV | 0.419 ± 0.013 | 0.49 ± 0.12 | 0.304 ± 0.049 | 0.497 ± 0.04 | 0.242 ± 0.017 | 0.294 ± 0.025 | 0.449 ± 0.03 | 0.446 ± 0.0057 |
| HPPRSLTLASSS | 0.696 ± 0.039 | 0.75 ± 0.014 | 0.661 ± 0.012 | 0.754 ± 0.025 | 0.65 ± 0.019 | 0.6427 ± 0.0058 | 0.7137 ± 0.00092 | 0.127 ± 0.029 |
| HRCLFPLEYLLI | 0.613 ± 0.055 | 0.72 ± 0.015 | 0.551 ± 0.021 | 0.701 ± 0.026 | 0.303 ± 0.022 | 0.344 ± 0.017 | 0.503 ± 0.018 | 0.473 ± 0.052 |
| HSLLLWLLVFFR | 0.441 ± 0.013 | 0.511 ± 0.01 | 0.388 ± 0.027 | 0.516 ± 0.0056 | 0.3609 ± 0.0034 | 0.367 ± 0.018 | 0.508 ± 0.012 | 0.413 ± 0.036 |
| HSVPPYPTPPPF | 0.668 ± 0.054 | 0.739 ± 0.0011 | 0.337 ± 0.041 | 0.616 ± 0.0097 | 0.302 ± 0.016 | 0.372 ± 0.016 | 0.586 ± 0.025 | 0.463 ± 0.002 |
| HVLLSSSASIVV | 0.623 ± 0.015 | 0.6613 ± 0.0046 | 0.534 ± 0.019 | 0.6449 ± 0.0028 | 0.534 ± 0.03 | 0.529 ± 0.026 | 0.63 ± 0.047 | 0.536 ± 0.058 |
| HYATLMSLRKVL | 0.6682 ± 0.0023 | 0.716 ± 0.036 | 0.64 ± 0.022 | 0.7219 ± 0.0017 | 0.128 ± 0.0077 | 0.137 ± 0.022 | 0.316 ± 0.032 | 0.27 ± 0.047 |

| Sequence | protein stability index [1, 3] | protein stability index [1, 4] | protein stability index [1, 5] | protein stability index [1, 6] | protein stability index [1, 7] | protein stability index [1, 8] | protein stability index [1, 9] | protein stability index [2] |
| --- | --- | --- | --- | --- | --- | --- | --- | --- |
| IAYCDNGFLVVV | 0.636 ± 0.037 | 0.676 ± 0.028 | 0.548 ± 0.023 | 0.695 ± 0.019 | 0.539 ± 0.013 | 0.563 ± 0.012 | 0.652 ± 0.012 | 0.521 ± 0.077 |
| IDTSRAATLLPA | 0.675 ± 0.021 | 0.7136 ± 0.0016 | 0.606 ± 0.017 | 0.722 ± 0.011 | 0.611 ± 0.016 | 0.631 ± 0.028 | 0.7161 ± 0.0029 | 0.739 ± 0.012 |
| IFWAKRNLVRVT | 0.382 ± 0.0086 | 0.421 ± 0.011 | 0.307 ± 0.029 | 0.478 ± 0.0088 | 0.201 ± 0.0051 | 0.251 ± 0.025 | 0.402 ± 0.0096 | 0.363 ± 0.028 |
| IGKEKRMKVIQI | 0.65 ± 0.025 | 0.69 ± 0.022 | 0.624 ± 0.018 | 0.735 ± 0.019 | 0.433 ± 0.0078 | 0.477 ± 0.0096 | 0.615 ± 0.013 | 0.516 ± 0.065 |
| IKKKRNKKKMIM | 0.653 ± 0.093 | 0.727 ± 0.011 | 0.655 ± 0.026 | 0.731 ± 0.026 | 0.316 ± 0.035 | 0.322 ± 0.048 | 0.597 ± 0.013 | 0.505 ± 0.042 |
| IKPSVHILIRTL | 0.544 ± 0.019 | 0.57 ± 0.017 | 0.446 ± 0.046 | 0.571 ± 0.02 | 0.118 ± 0.022 | 0.14 ± 0.0072 | 0.222 ± 0.0071 | 0.21 ± 0.0069 |
| ILGDPHLALIFP | 0.689 ± 0.02 | 0.757 ± 0.012 | 0.657 ± 0.026 | 0.749 ± 0.018 | 0.652 ± 0.028 | 0.666 ± 0.021 | 0.7324 ± 0.0016 | 0.703 ± 0.022 |
| ILVYFQAHAIKI | 0.1592 ± 0.00018 | 0.189 ± 0.015 | 0.0937 ± 0.022 | 0.199 ± 0.0036 | 0.0645 ± 0.012 | 0.0874 ± 0.027 | 0.202 ± 0.01 | 0.129 ± 0.0092 |
| ISARPFLYSFRP | 0.683 ± 0.01 | 0.7515 ± 0.0074 | 0.643 ± 0.034 | 0.7373 ± 0.0025 | 0.644 ± 0.027 | 0.644 ± 0.041 | 0.71009 ± 0.00017 | 0.0266 ± 0.038 |
| ISFSLALSVSFS | 0.5219 ± 0.0035 | 0.532 ± 0.014 | 0.502 ± 0.015 | 0.478 ± 0.029 | 0.567 ± 0.05 | 0.528 ± 0.011 | 0.469 ± 0.013 | 0.49 ± 0.0052 |
| ISLSCRSFFCLS | 0.61 ± 0.033 | 0.68 ± 0.011 | 0.574 ± 0.018 | 0.6691 ± 0.0065 | 0.446 ± 0.015 | 0.462 ± 0.019 | 0.5854 ± 0.0049 | 0.507 ± 0.027 |
| ISLVLVVIEVQR | 0.0774 ± 0.045 | 0.285 ± 0.042 | 0.166 ± 0.042 | 0.316 ± 0.017 | 0.135 ± 0.0075 | 0.143 ± 0.024 | 0.249 ± 0.03 | 0.209 ± 0.027 |
| ISVFLFAFFFIP | 0.447 ± 0.0098 | 0.553 ± 0.024 | 0.395 ± 0.03 | 0.531 ± 0.013 | 0.275 ± 0.016 | 0.306 ± 0.012 | 0.425 ± 0.01 | 0.356 ± 0.031 |
| ISVQKRRAIEII | 0.586 ± 0.008 | 0.6379 ± 0.0021 | 0.496 ± 0.03 | 0.626 ± 0.0078 | 0.266 ± 0.008 | 0.305 ± 0.018 | 0.492 ± 0.03 | 0.451 ± 0.013 |
| IVCFCFFLMFSL | 0.319 ± 0.063 | 0.34 ± 0.011 | 0.321 ± 0.021 | 0.417 ± 0.014 | 0.4222 ± 0.0033 | 0.317 ± 0.017 | 0.3766 ± 0.0011 | 0.378 ± 0.0077 |
| IVVLCHVFLDLG | 0.048 ± 0.01 | 0.128 ± 0.033 | 0.125 ± 0.048 | 0.222 ± 0.019 | 0.074 ± 0.026 | 0.0933 ± 0.021 | 0.2008 ± 0.00035 | 0.126 ± 0.03 |
| IWCQVGAFLVVF | 0.218 ± 0.0075 | 0.257 ± 0.0071 | 0.209 ± 0.024 | 0.352 ± 0.0047 | 0.18 ± 0.01 | 0.198 ± 0.02 | 0.337 ± 0.0084 | 0.307 ± 0.027 |
| IYVLLDVNYHLP | 0.509 ± 0.024 | 0.527 ± 0.0074 | 0.379 ± 0.024 | 0.543 ± 0.014 | 0.3542 ± 0.0026 | 0.361 ± 0.026 | 0.5681 ± 0.0038 | 0.468 ± 0.042 |
| IYVSVMLLRYRF | 0.41 ± 0.042 | 0.428 ± 0.018 | 0.342 ± 0.035 | 0.493 ± 0.0097 | 0.3455 ± 0.00077 | 0.331 ± 0.042 | 0.481 ± 0.03 | 0.465 ± 0.043 |
